# Reference: patent US20150093336A1 (VIB VZW, published 2015)
# Substitutions are numbered along the chain they refer to.
# T1: Recombinant mouse MMR (R&D systems) (mouse, UniProt Q61830 20-1388)
# T1 construct: Antigen of the PE-ELISA and the SPR; also called mMMR; recombinant mMMR
# T1 sequence: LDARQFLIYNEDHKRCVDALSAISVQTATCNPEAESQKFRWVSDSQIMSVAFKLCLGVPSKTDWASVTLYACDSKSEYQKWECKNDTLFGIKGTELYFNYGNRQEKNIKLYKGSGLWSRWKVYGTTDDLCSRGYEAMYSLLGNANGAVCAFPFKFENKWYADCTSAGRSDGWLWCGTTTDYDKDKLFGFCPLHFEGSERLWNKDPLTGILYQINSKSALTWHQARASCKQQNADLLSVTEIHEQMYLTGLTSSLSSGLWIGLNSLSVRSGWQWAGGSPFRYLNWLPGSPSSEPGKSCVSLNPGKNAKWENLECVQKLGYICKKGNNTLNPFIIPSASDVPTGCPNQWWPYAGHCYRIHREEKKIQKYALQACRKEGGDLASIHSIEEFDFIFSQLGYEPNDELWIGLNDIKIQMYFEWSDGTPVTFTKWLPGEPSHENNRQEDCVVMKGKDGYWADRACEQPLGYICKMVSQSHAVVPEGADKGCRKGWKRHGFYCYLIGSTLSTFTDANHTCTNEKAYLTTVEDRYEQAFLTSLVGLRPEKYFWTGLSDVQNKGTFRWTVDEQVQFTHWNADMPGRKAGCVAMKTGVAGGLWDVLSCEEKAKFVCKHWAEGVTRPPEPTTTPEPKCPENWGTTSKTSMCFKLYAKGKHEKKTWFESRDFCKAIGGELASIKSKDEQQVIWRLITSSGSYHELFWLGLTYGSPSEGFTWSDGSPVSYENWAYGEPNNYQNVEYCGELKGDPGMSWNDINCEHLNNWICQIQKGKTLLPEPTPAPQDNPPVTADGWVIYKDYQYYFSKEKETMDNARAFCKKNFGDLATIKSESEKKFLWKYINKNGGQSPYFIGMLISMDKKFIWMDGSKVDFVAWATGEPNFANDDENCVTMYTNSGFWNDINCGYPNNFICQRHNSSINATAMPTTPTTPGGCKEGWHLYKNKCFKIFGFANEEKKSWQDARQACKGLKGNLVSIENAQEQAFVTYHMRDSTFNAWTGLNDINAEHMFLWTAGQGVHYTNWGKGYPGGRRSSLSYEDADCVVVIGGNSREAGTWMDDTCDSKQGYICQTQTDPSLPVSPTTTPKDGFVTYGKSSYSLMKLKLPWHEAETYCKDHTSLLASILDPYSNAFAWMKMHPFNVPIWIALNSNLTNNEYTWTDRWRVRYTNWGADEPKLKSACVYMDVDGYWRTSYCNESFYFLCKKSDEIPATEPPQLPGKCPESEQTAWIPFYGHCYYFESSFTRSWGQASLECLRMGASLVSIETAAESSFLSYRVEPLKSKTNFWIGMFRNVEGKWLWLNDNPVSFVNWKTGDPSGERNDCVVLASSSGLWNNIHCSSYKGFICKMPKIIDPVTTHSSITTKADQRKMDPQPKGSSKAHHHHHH
# T2: Recombinant human MMR (R&D systems) (human, UniProt P22897 19-1383)
# T2 construct: Antigen of the PE-ELISA and the SPR; also called hMMR; recombinant hMMR
# T2 sequence: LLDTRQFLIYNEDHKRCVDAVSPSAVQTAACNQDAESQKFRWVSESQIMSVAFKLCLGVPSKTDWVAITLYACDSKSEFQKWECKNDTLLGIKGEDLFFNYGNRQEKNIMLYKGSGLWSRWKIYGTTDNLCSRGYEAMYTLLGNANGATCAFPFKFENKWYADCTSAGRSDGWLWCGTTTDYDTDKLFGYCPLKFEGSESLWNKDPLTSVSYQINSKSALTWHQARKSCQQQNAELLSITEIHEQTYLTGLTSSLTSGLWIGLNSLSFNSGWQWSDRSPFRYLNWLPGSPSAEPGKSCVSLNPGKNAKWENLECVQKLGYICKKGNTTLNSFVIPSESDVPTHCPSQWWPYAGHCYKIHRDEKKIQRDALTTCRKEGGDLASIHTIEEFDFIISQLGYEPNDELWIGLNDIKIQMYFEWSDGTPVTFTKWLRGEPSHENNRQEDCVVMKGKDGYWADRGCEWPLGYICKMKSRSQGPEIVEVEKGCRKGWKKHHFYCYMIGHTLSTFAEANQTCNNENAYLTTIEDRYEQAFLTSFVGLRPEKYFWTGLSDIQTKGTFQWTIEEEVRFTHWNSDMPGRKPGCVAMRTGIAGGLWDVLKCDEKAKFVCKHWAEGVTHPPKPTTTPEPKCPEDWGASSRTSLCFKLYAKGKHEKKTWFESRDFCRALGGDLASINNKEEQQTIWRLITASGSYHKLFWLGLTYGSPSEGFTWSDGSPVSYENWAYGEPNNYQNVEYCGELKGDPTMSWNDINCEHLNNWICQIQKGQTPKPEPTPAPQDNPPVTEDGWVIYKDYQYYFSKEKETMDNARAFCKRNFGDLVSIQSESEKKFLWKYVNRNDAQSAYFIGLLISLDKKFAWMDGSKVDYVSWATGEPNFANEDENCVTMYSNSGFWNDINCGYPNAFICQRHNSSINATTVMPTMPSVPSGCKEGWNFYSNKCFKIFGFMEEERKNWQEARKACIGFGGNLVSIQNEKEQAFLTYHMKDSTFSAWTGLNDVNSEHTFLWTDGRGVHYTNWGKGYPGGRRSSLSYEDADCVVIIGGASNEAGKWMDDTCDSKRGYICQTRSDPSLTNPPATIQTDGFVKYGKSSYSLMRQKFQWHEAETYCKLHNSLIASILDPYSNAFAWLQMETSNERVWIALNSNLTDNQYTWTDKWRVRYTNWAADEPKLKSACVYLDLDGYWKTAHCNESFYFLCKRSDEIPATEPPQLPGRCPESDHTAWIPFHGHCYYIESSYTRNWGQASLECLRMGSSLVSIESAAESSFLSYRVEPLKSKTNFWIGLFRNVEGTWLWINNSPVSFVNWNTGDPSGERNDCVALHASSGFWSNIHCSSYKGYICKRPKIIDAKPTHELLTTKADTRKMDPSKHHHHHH
# B1: NbhMMRm15.43 (VHH)
# VHH: QVQLQESGGTLVQPGGSLRLSCAASGSTFSINNMGWYRQAPGKQRELVAGITGGNTHYADSVKGRFTISRDNAKNTMYLQMNGLKPEDTAVYYCNANWGAYWGQGTQVTVSS
# notes: Produced from pMECS with C-terminal HA and 6xHis tag
# B2: NbhmMMRm15.49 (VHH)
# VHH: B1 VHH with T10G, P14A, G83S
# notes: as for B1
# B3: NbhmMMRm24.31 (VHH)
# VHH: QVQLQESGGGLVQPGGSLRLSCTATGFTLKNHHIGWLRQAPGKEREGVASINSSGGSTNYADSVQGRFTISRDNAKNTVFLQMNSLKSEDTAVYYCARLRRYYGLNLDPGSYDYWGQGTQVTVSS
# notes: as for B1
# B4: NbhMMRm5.38 (VHH)
# VHH: QVQLQESGGGLVQAGGSLRLSCAASGFTDDDYDIGWFRQAPGKEREGVSCISSSDGSTYYADSVKGRFTISSDNAKNTVYLQMNSLKPEDTAVYYCAADFFRWDSGSYYVRGCRHATYDYWGQGTQVTVSS
# notes: Produced from pMECS with C-terminal HA and 6xHis tag; also called NbhmMMRm5.38; Nb5.38
# B5: NbhMMRm23.30 (VHH)
# VHH: QVQLQESGGGLVQAGDSLSISCAASGDTFNHYSWGWFRQAPGKAREFVAAISWNGGSKYADSVKGRFAISRDIAKNTVSLQMNSLEPEDTAVYYCAADRRPYNDWWDDWSWWVYWGQGTQVTVSS
# notes: as for B1
# B6: NbhMMRm10.19 (VHH)
# VHH: QVQLQESGGGLVQPGGSLKLSCAASGSIFSIKTMGWYRQAPGKQRELVAAITSGGSTNYADSVKGRFTISRDNAKNTVYLQMNSLKPEDTAVYYCNADGVVAWDQPYDNYWGQGTQVTVSS
# notes: as for B1
# B7: NbhmMMRm22.84 (VHH)
# VHH: QVQLQESGGGLVQPGGSLRLSCAASGRTFSNYVNYAMGWFRQFPGKEREFVASISWSSVTTYYADSVKGRFTISRDNAKNTVYLQMNSLKPEDTAVYYCAAHLAQYSDYAYRDPHQFGAWGQGTQVTVSS
# notes: as for B1
# B8: NbhMMRm3.1 (VHH)
# VHH: QVQLQESGGGLVQPGGSLRLSCAASGFTLDYYAIGWFRQAPGKEREGISCISYKGGSTTYADSVKGRFTISKDNAKNTAYLQMNNLKPEDTGIYYCAAGFVCYNYDYWGPGTQVTVSS
# notes: Produced from pMECS with C-terminal HA and 6xHis tag; also called NbhmMMRm3.1
# B9: NbhmMMRm3.49 (VHH)
# VHH: B8 VHH with T28S, N85S, Y95S, P110Q
# notes: Produced from pMECS with C-terminal HA and 6xHis tag; also called NbhMMRm3.49
# B10: NbhmMMRm26.70 (VHH)
# VHH: QVQLQESGGGLVQPGGSLRLSCTASGFPFSSAPMSWVRQAPGKELEWVSYIGYTGTITDYANSVKGRFTISRDNAKNRLYLQMNSLKPEDTAVYFCAQGYARLIADSDLVRGQGTQVTVSS
# notes: as for B1
# B11: NbhmMMRm21.22 (VHH)
# VHH: QVQLQESGGGLVQAGGSLRLSCAASGRTFSSAAMGWFRQAPGKEREPVALINLDDGETYYADIAKGRFTLSKDNAKNSVYLQMNSLKPEDTAVYYCAVRGRFDDNYEYWGQGTQVTVSS
# notes: Produced from pMECS with C-terminal HA and 6xHis tag; also called NbhMMRm21.22
# B12: NbhmMMRm6.71 (VHH)
# VHH: QVQLQESGGGLVQAGGSLRLSCAASGGTFDDSVIGWFRQAPGKEREGVSCISSNDGTTHYASPVKGRFTISSDNAKNTVYLQMNSLKPEDTAVYYCAAETPSIGSPCTSASYDYWGQGTQVTVSS
# notes: as for B1
# B13: NbhmMMRm17.72 (VHH)
# VHH: QVQLQESGGGLVQPGGSLRLSCAASGSIVSINAMGWYRQAPGKQRELVALVTGSGRTNLADSVKGRFTISRDNAKNTVYLQMNSLKPEDTAVYYCNVLVIGPLEGYDYWGQGTQVTVSS
# notes: as for B1
# Biological target: T1, Recombinant mouse MMR (R&D systems)
# Assay: SPR, BIAcore T100; mouse MMR on CM5 chip, sdAb as analyte
# Experimental: (§1) Affinity analysis was performed using a BIAcore™ T100 (GE Healthcare) with HEPES-buffered saline running buffer (10 mM HEPES with 0.15 M NaCl, 3.4 mM EDTA and 0.005% surfactant P20 at pH 7.4). MRR was immobilized on a CM5 chip in acetate buffer 50 mM (pH 5.0), resulting in 2100 RU MMR coated on the chip. A second channel on the same chip was activated/deactivated in a similar way and served as a negative control. The MMR sdAbs were used as analytes in eleven different concentrations, ranging from 1 to 2000 nM, at a flow rate of […]. Glycine-HCl 50 mM (pH 2.0) was used for elution. The kinetic and equilibrium parameters (kd, ka and KD) values were calculated from the combined sensogram of all concentrations using BIAcore™ T100 evaluation software 2.02 (GE Healthcare).
# (§2) The binding characteristics and affinity of selected Nbs towards the recombinant hMMR and recombinant mMMR antigen was examined in further detail using surface plasmon resonance. A combined sensogram was recorded for each Nb (example for NbhmMMRm3.49 in FIG. 5) and the kinetic and equilibrium parameters (kd, ka and KD) values were calculated (Table 4 and Table 5). Most but not all results on binding to mouse or human rMMR obtained via this SPR analysis are in agreement with the results obtained by PE-ELISA.
Kd [nM],koff [s⁻¹],kon [M⁻¹ s⁻¹],Binder,binding result
44,0.0013,29000,B1,
44,0.0013,29000,B2,
74,0.0021,28000,B3,
25,0.0033,130000,B4,
,,,B5,no binding (tested: analyte 1 to 2000 nM)
250,0.21,840000,B6,
130,0.004,30000,B7,
19,0.004,210000,B8,
12,0.0036,290000,B9,
1.9,0.0013,690000,B10,

# Biological target: T2, Recombinant human MMR (R&D systems)
# Assay: SPR, BIAcore T100; human MMR on CM5 chip, sdAb as analyte
# Experimental: as §1, §2
Kd [nM],koff [s⁻¹],kon [M⁻¹ s⁻¹],Binder
3.6,0.0012,340000,B11
270,0.0059,22000,B1
290,0.0061,21000,B2
5.6,0.0011,190000,B12
19,0.0012,62000,B13
2.7,0.00069,260000,B3
3.3,0.00066,200000,B4
50,0.031,750000,B6
38,0.0019,49000,B7
3.4,0.00074,220000,B8
1.8,0.0008,440000,B9
13,0.0073,580000,B10
